Assay results: patent publication CN111484554A (YINGWEIFUSAI BIOTECHNOLOGY CO LTD, dated 2020)

Biological target: T1, 4-1BB(24-180)-His重组蛋白 (4-1BB胞外段24-180位氨基酸, C端6个His) (UniProt Q07011 24-180)
T1 construct: range 24-180; Human is implied by the human therapeutic context; The monomer was used for immunisation and the ELISA screen; also called 4-1BB-His蛋白; 4-1BB蛋白
Test: SPR, antibody captured on Protein A chip, 4-1BB protein 6.25-400 nM as analyte

Row | Kd | Binder
1 | 3.75 nM | 11B6嵌合抗体 (antibody, human IgG4 S228P, kappa, V domains shown, Mouse 11B6 variable regions on a human IgG4 constant region and a human kappa constant region; also called 11B6 chimeric antibody) VH: QVQLQQPGAELVRPGASVKLSCKASGYTFTSYWINWVKQRPGQGLEWIGNIYPSDSYTNYNQKFKDKATLTVDKSSSTAYMQLSSPTSEDSAVYYCTRESQTGTGYYAMDYWGQGTSVTVSS VL: DIQMTQTTSSLSASLGDRVTISCRASQDISNYLNWYQQKPDGTVKLLIYYTSRLHSGVPSRFSGSGSGTDYSLTISNLEQEDIATYFCQQGNTLPWTFGGGTKLEIKR
2 | 5.84 nM | 人源化11B6-hu-a抗体 (antibody, human IgG4 S228P, kappa, V domains shown) VH: QVQLVQSGAEVKKPGSSVKVSCKASGYTFTSYWINWVRQAPGQGLEWIGNIYPSDSYTNYNQKFQGRVTITADESTSTAYMELSSLRSEDTAVYYCTRESQTGTGYYAMDYWGQGTLVTVSS VL: DIQMTQSPSSLSASVGDRVTITCQASQDISNYLNWYQQKPGKAPKLLIYYTSRLHSGVPSRFSGSGSGTDFTFTISSLQPEDIATYYCQQGNTLPWTFGGGTKLEIKR
3 | 9 nM | 人源化11B6-hu-b抗体 (antibody, human IgG4 S228P, kappa, V domains shown) VH: QVQLVQSGAEVKKPGASVKVSCKASGYTFTSYWINWVRQAPGQGLEWIGNIYPSDSYTNYNQKFQGRVTMTRDTSTSTVYMELSSLRSEDTAVYYCTRESQTGTGYYAMDYWGQGTLVTVSS VL: DIQMTQSPSSLSASVGDRVTITCRASQDISNYLNWYQQKPGKAPKLLIYYTSRLHSGVPSRFSGSGSGTDFTLTISSLQPEDFATYYCQQGNTLPWTFGQGTKVEIKR
